Drawing on article PMC7855779, this text covers Kd and IL-6 content of the media of NRK-52E cells (ELISA), Ang II 1 μM against control for three substances.

In experiment [1] the target is MD2 (Homo sapiens) (UniProt Q9Y6Y9). The note with it: cited from earlier work.
Experiment [2] shares this target. The note with it: cited from earlier work. The source holds these as a separate data set.
The target of experiment [3] is MD2-TLR4 complex (rat (endogenous in NRK-52E)) (UniProt Q9QX05).
The target is the same in experiment [4]. The source holds these as a separate data set.

Read-outs that look alike come from different tables or passages of the source.

Sequence of UniProt Q9QX05 (Q9QX05 whole entry, looked up, one chain of several): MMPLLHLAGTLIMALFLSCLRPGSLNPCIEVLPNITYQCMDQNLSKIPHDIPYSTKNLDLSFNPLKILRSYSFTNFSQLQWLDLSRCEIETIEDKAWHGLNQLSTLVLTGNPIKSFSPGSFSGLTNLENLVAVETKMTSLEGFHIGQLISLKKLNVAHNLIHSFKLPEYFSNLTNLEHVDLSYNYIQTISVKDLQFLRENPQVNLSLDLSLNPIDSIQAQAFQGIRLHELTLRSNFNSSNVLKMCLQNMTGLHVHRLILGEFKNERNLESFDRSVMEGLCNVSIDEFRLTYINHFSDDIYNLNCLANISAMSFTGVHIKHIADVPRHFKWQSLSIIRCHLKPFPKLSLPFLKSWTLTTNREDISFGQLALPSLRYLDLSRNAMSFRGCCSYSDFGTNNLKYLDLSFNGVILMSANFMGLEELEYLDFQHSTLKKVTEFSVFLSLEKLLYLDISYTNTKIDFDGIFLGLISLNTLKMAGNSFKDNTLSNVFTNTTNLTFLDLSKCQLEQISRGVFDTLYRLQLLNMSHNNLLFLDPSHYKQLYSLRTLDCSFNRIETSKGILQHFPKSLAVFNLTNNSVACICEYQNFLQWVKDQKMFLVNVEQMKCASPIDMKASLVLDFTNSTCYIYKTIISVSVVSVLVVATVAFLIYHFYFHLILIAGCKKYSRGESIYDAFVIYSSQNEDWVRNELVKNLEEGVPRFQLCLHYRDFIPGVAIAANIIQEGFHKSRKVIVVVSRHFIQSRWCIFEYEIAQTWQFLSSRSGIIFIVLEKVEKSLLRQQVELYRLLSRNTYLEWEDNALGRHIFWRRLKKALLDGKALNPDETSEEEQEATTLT
Sequence of UniProt Q9Y6Y9 (Q9Y6Y9 19-160): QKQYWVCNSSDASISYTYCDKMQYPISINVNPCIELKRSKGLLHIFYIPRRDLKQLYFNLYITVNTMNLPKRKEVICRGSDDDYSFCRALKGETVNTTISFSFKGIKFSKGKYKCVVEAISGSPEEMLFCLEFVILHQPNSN

For Angiotensin II (from UniProt P01019), in the experiment with MD2 (Homo sapiens) [1], the Kd – broadly, a measure of binding affinity in units of concentration – is 200 µM.

Turning to HMGB1 (from UniProt P09429), the Kd with MD2 (Homo sapiens) [2] is 0.6 µM.

With Angiotensin II (peptide), the IL-6 content of the media of NRK-52E cells (ELISA), Ang II 1 μM against control turned out to be 61 pg/mL in experiment [3] and 15 pg/mL in experiment [4].
